Measured values taken from article PMC8187598.

How the values were obtained:
[1] = target: His-tagged α subunit of acetyl-CoA carboxylase (AccA), biotinylated (Streptomyces hygroscopicus var. ascomyceticus FS35)
[2] = target: His-tagged α subunit of acetyl-CoA carboxylase (AccA), biotinylated (Streptomyces hygroscopicus var. ascomyceticus FS35); remark: listed apart in the source

- in vitro activity of ACC in the coupled enzyme assay with 5 μM GlnB, against 100% without GlnB [1]: 54.2%
- in vitro activity of PCC in the coupled enzyme assay with 5 μM GlnB, against 100% without GlnB [1]: 76.5%
- maximal calculated inhibition of ACC by GlnB at rising concentrations (from 0 μM, stable above 1.5 μM), without 2-OG [2]: 50%
- maximal calculated inhibition of PCC by GlnB at rising concentrations (from 0 μM, stable above 1.5 μM), without 2-OG [2]: 24.7%
B1: GlnB protein (PII signal transduction protein encoded by gene 1_2537), native (untagged) (natural protein)
chain: MSIKAEYIWIDGTQPTAKLRSKTKILSDGSRLPRWGFDGSSTNQAEGHASDLVLEPVFSCPDPIRGGDHLLVLCEVLHTDLTPHPSNTRALLRPVAERFAGQEPIFGIEQEYTFLKGDRPLGFPEGGGYPAPQADYYCGVGADAIFGREIVEKHLDLCLAAGLGLSGINAEVMPGQWEFQVGALPPLEVSDHMWVARWLLHRVAEEFGVTASLDAKPAKGDWNGAGAHTNFSTRAMREGYDPIITACEALGQDDKPLEHVRQYGTGIEDRLTGAHETAPWDAYSYGASDRGASVRIPWQVEVEKKGYIEDRRPNANVDPYVVTRLMVDTCCTELARREQI
